The values below come from the supplement of paper PMC10201428.

± gives the standard deviation of the averaged measurements.

For the data set, the system named is VchCAST RNA-guided transposition machinery (E. coli BL21(DE3) host, lacZ target). The experiment in a line: relative integration efficiency (T-LR orientation) vs wild-type transposon end (log2 (normalized fold change)); transposon end mutated: right end (5 bp flank + 75 bp right end); higher = more efficient transposition. A digest of the protocol: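 Each barcoded pool, 1549 left-end or 1849 right-end transposon variants in a pUC57 mini-transposon donor, went into E. coli BL21(DE3) with a T7-driven effector plasmid (CRISPR array, tniQ-cas8-cas7-cas6, tnsA-tnsB-tnsC). Plates contained 0.1 mM IPTG and were held at 37°C for 18 h. Input plasmids and genomic integration junctions were PCR-amplified and read by Illumina sequencing, with two biological output replicates and four reference barcodes. Relative integration efficiency is the fold change of output over input barcode abundance, normalised to the reference barcodes and log-transformed.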
On to “ACATTTGTTGATACAACCATAAAATGATAATTAGAAACCATAATTGATAATTATCACACCCATAAATTGATATTGCCTCTGATCATAGTCAGACCAACATTGCTACGACCCGTATTCGCACCGACAC”, for which the “relative integration efficiency (log2)” value was -2.38 ± 0.52. Regarding “ACATTTGTTCATACAACCCTAAAATGATAATTACACCCATAAATTCATAATTATCACACCCAATTTAACTATAACGCTCTGATCATAGTCAGACCAACATTGCTACGACCCGTATTCGCACCGACAC”, the “relative integration efficiency (log2)” value is -2.644 ± 0.026.

For “ACATTTGTTGATACAACCATAAAATGATAATTACACCCATAAATTGATATTGCTCACACCCATAAATTGATAATTACTCTGATCATAGTCAGACCAACATTGCTACGACCCGTATTCGCACCGACAC”, the “relative integration efficiency (log2)” value was 0.634 ± 0.033. As for “ACATTTGTTGATACCACCATAAAATGGTAATTCCACCCCTACATTGATAATTATCACACCCAATTTAACTATAACGCTCTGATCATAGTCAGACCAACATTGCTACGACCCGTATTCGCACCGACAC”, the “relative integration efficiency (log2)” value is -0.833 ± 0.022. Consider “ACATTTGTTGATACACCCATAAATTGATATTGCCAACCATAAGTTGATATTTTTCACAACCATAAGTTGATATTTTCTCTGATCATAGTCAGACCAACATTGCTACGACCCGTATTCGCACCGACAC”, for which the “relative integration efficiency (log2)” value is -0.197 ± 0.3. With “ACATTTGTCGATCCAACCATAAAATGATAATTACACCCATAAATTGATCATTATCACACCCAATTTAACTATAACGCTCTGATCATAGTCAGACCAACATTGCTACGACCCGTATTCGCACCGACAC”, the “relative integration efficiency (log2)” value worked out at 2.167 ± 0.0082. As to “ACATTTGTTGATACAACCAATAAAAGATTATTACCCCCATTAATTGATAATGATGACACCGAATTTAACTATAACGCTCTGATCATAGTCAGACCAACATTGCTACGACCCGTATTCGCACCGACAC”, the “relative integration efficiency (log2)” value was -1.84 ± 0.29. On to “ACATTTGTTGATACAACCCTAAAATGATAATTACACCCATAAATTCATAATTATCACCCCCAATTTAACTATAACGCTCTGATCATAGTCAGACCAACATTGCTACGACCCGTATTCGCACCGACAC”, for which the “relative integration efficiency (log2)” value was -1.67 ± 0.083.

As for “ACATTTGTTGATACAACCATATATTGATATCTCCAACCATAAAATGATAATTATCACACCCATAAATTGATAATTACTCTGATCATAGTCAGACCAACATTGCTACGACCCGTATTCGCACCGACAC”, the “relative integration efficiency (log2)” value is -0.0737 ± 0.099. Take “ACATTTGTTGATACAACCATAAAGTGATATTTACACCCATAAATTGATAATTATCAGTGGGTATTTAACTATAACGCTCTGATCATAGTCAGACCAACATTGCTACGACCCGTATTCGCACCGACAC”: the “relative integration efficiency (log2)” value is 2.57 ± 0.054. Regarding “ACATTTGTCGATACAACCCTAAAATGATAATTACACCCATAAATGGATCATTATCACCCCCAATTTAACTATAACGCTCTGATCATAGTCAGACCAACATTGCTACGACCCGTATTCGCACCGACAC”, the “relative integration efficiency (log2)” value is -1.4 ± 0.051. Take “ACATTTGTTGATACAACCATAAAATGATAATTAATAATTATTTCACCCATAAATTGATAATTATCAACAAACGCCCGGTCGCGGTACTCTGATCATAGTCAGACCAACATTGCTACGACCCGTATTC”: the “relative integration efficiency (log2)” value stood at 0.365 ± 0.079. Turning to “ACATTTGTTGATACAACCATAAAATGATAATTAATAATTATTTATAATCAGCAACTTAACCACCACCCATAAATTGATAATTATCAACAAACGCCCGGTCGCGGTACTCTGATCATAGTCAGACCAA”, the “relative integration efficiency (log2)” value came to 0.423 ± 1.1. The figure for “ACATTTGCTGATACTACCATATAATGATAATAACACCCCTAAAATGATAATTATCACACCCAATTTAACTATAACGCTCTGATCATAGTCAGACCAACATTGCTACGACCCGTATTCGCACCGACAC” is -2.64 ± 0.76.

For “ACATTTGTTGATACAACCATAAAATGATAATTAATACACCCATAAATTGATAATTATCAACAAACGCCCGGTCGCGGTACTCTGATCATAGTCAGACCAACATTGCTACGACCCGTATTCGCACCGA”, the “relative integration efficiency (log2)” value is 0.59376 ± 0.00039.

“ACATTTGTTGATACAACCAATAAATGATAATTACACCCATTAATTGATAATAATGACACCGAATTTAACTATAACGCTCTGATCATAGTCAGACCAACATTGCTACGACCCGTATTCGCACCGACAC”: the “relative integration efficiency (log2)” value came out at 1.91 ± 0.054. “ACATTTGTTGATACAACCATAAAATGATAATTACAACCATATATTGATATCTCTCACAACCATAAAGTGATATTTACTCTGATCATAGTCAGACCAACATTGCTACGACCCGTATTCGCACCGACAC”: the “relative integration efficiency (log2)” value was 0.0743 ± 0.02.

Consider “ACATTTGTTGATACAACCATAAAAAGATAATTACACCCATAAATAGATAATTATCACACCCATAAATAGATATTGCCTCTGATCATAGTCAGACCAACATTGCTACGACCCGTATTCGCACCGACAC”, for which the “relative integration efficiency (log2)” value was -0.0292 ± 0.3.

With “ACATTTGTTGATACAACCATAAAATGATAATTACACCCATAAATTGATAATTATCACACCCATAAATTGCGCGGTAAGAGGATCATAGTCAGACCAACATTGCTACGACCCGTATTCGCACCGACAC”, the “relative integration efficiency (log2)” value stood at 2.18 ± 0.12. Regarding “ACATTTGTTGATACAACCATAAAATGATAATTACACCCATAAATTGATAATTATCACACCCATAAATTGATATTGCCTCTGATCATAGTCAGACCACAACCATAAAATGATAATTAAGCACCGACAC”, the “relative integration efficiency (log2)” value was -0.205 ± 0.37.

Turning to “ACATTTGTTGATACAACCATAAAATGATAAAATCACCCATAAATTGATAAAATTCACACCCATAAATTGATATACGCTCTGATCATAGTCAGACCAACATTGCTACGACCCGTATTCGCACCGACAC”, the “relative integration efficiency (log2)” value was -0.368 ± 0.21. Regarding “ACATTTGTTGATACAACCATAAAATGAATTATACACCCATAAATTGATAATTATCACACCCATAAATTGATATTGCCTCTGATCATAGTCAGACCAACATTGCTACGACCCGTATTCGCACCGACAC”, the “relative integration efficiency (log2)” value is -0.0536 ± 0.3.

As to “ACATTTGTTGATACAACCATATAATGATAATAACACCCCTAAAATGATAATTATCACACCCAATTTAACTATAACGCTCTGATCATAGTCAGACCAACATTGCTACGACCCGTATTCGCACCGACAC”, the “relative integration efficiency (log2)” value was 0.598 ± 0.1. The figure for “ACATTTGTTCATCCAACCATAAAATGATAATTACACCCATAAATGGATAATTATCACACCCAATTTAACTATAACGCTCTGATCATAGTCAGACCAACATTGCTACGACCCGTATTCGCACCGACAC” is -0.431 ± 0.44; for “ACATTTGTTGATACAACCATAAAACGATAATTACACCCATAAATTCATAATTATCACACCCAATTTAACTATAACGCTCTGATCATAGTCAGACCAACATTGCTACGACCCGTATTCGCACCGACAC” it is 1.3 ± 0.2.

For the sequence “ACATTTGTTGATACAACCATAAGTTGATATTTTCAACCATATATTGATATCTCTCACAACCATATATTGATATCTCCTCTGATCATAGTCAGACCAACATTGCTACGACCCGTATTCGCACCGACAC”, the “relative integration efficiency (log2)” value turned out to be 0.206 ± 0.098. For the sequence “ACATTTGTTGATACAACCATAAAATGATAATTACACCCATAAATTGATAATTATCACACCCATAAATTGATATTGCCTGAGATCATAGTCAGACCAACATTGCTACGACCCGTATTCGCACCGACAC”, the “relative integration efficiency (log2)” value stood at 0.172 ± 0.11.

Take “ACATTTGTTGATACCCCCATAAAATGATAATTACACCCATAAATTGATAATTATCACACCCATAAATTGATATTGCCTCTGATCATAGTCAGACCAACATTGCTACGACCCGTATTCGCACCGACAC”: the “relative integration efficiency (log2)” value was -0.879 ± 0.24. On to “ACATTTGTTGATACAACCATAAAATTCTAATTACACCCATAAATTGATAATTATCACACCCATAAATTGATATTGCCTCTGATCATAGTCAGACCAACATTGCTACGACCCGTATTCGCACCGACAC”, for which the “relative integration efficiency (log2)” value is -1.38 ± 0.16.

Turning to “ACATTTGTTGATACAACCATAAAATGATAATTAATAATTCACCCATAAATTGATAATTATCACACCCATAAATTGATATTGCCTCTGATCATAGTCAGACCAACATTGCTACGACCCGTATTCGCAC”, the “relative integration efficiency (log2)” value was found to be 1.16 ± 0.069. Regarding “ACATTGGTCGATACAACCATAAAATGATAATTACACCCATAAATTGATCATTATCACACCCAATTTAACTATAACGCTCTGATCATAGTCAGACCAACATTGCTACGACCCGTATTCGCACCGACAC”, the “relative integration efficiency (log2)” value was -5.922 ± 0.042. The figure for “ACATTTGTTGATACAACCATAAAATGATAATTACACCCATAAATTGATAATTATCACACCCATAAATTGATATTGCCTCTGATAACTTCGTATAATGTATCGTATACGAACGGTATCGCACCGACAC” is -0.264 ± 0.53.
